Laboratory results as given in PMC9279507.
Numbering of substitutions follows the chain as printed. In names and notes the source's numbering stands.

T1: 6XHis-tagged TgIST-R2 (G365-S420)
T1 chain: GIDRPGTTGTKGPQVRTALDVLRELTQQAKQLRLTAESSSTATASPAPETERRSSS

B1: STAT1cc (STAT1 core fragment, A656C and N658C, locked dimer), tag-free, P42224 E618A (protein)
chain: MSQWYELQQLDSKFLEQVHQLYDDSFPMEIRQYLAQWLEKQDWEHAANDVSFATIRFHDLLSQLDDQYSRFSLENNFLLQHNIRKSKRNLQDNFQEDPIQMSMIIYSCLKEERKILENAQRFNQAQSGNIQSTVMLDKQKELDSKVRNVKDKVMCIEHEIKSLEDLQDEYDFKCKTLQNREHETNGVAKSDQKQEQLLLKKMYLMLDNKRKEVVHKIIELLNVTELTQNALINDELVEWKRRQQSACIGGPPNACLDQLQNWFTIVAESLQQVRQQLKKLEELEQKYTYEHDPITKNKQVLWDRTFSLFQQLIQSSFVVERQPCMPTHPQRPLVLKTGVQFTVKLRLLVKLQELNYNLKVKVLFDKDVNERNTVKGFRKFNILGTHTKVMNMEESTNGSLAAEFRHLQLKEQKNAGTRTNEGPLIVTEELHSLSFETQLCQPGLVIDLETTSLPVVVISNVSQLPSGWASILWYNMLVAEPRNLSFFLTPPCARWAQLSEVLSWQFSSVTKRGLNVDQLNMLGEKLLGPNASPDGLIPWTRFCKENINDKNFPFWLWIESILELIKKHLLPLWNDGCIMGFISKERERALLKDQQPGTFLLRFSESSREGAITFTWVARSQNGGEPDFHAVEPYTKKELSAVTFPDIIRNYKVMAAENIPENPLKYLYPNIDKDHAFGKYYSRPKEAPEPMELDGPKGTGYIKTELISVSEVHPSRLQTTDNLLPMSPEEFDEVSRIVGSVEFDSMMNTV
B2: STAT1cc (STAT1 core fragment, A656C and N658C, locked dimer), tag-free, P42224 E625A (protein)
chain: B1 chain with A618E, E625A
B3: STAT1cc (STAT1 core fragment, A656C and N658C, locked dimer), tag-free, P42224 K652A (protein)
chain: B1 chain with A618E, K652A
B4: STAT1cc (STAT1 core fragment, A656C and N658C, locked dimer), tag-free, P42224 Q621A (protein)
chain: B1 chain with A618E, Q621A
B5: STAT1cc (STAT1 core fragment, A656C and N658C, locked dimer), tag-free, P42224 Q621W (protein)
chain: B1 chain with A618E, Q621W
B6: STAT1cc (STAT1 core fragment, A656C and N658C, locked dimer), tag-free, P42224 D593A (protein)
chain: B1 chain with D593A, A618E
B7: STAT1cc (STAT1 core fragment, A656C and N658C, locked dimer), tag-free, P42224 N662K (protein)
chain: B1 chain with A618E, N662K
B8: STAT1cc (STAT1 core fragment, A656C and N658C, locked dimer), tag-free, P42224 Q594A (protein)
chain: B1 chain with Q594A, A618E
B9: STAT1cc (STAT1 core fragment, A656C and N658C, locked dimer), tag-free, P42224 E657A (protein)
chain: B1 chain with A618E, E657A
B10: STAT1cc (STAT1 core fragment, A656C and N658C, locked dimer), tag-free, P42224 E632A (protein)
chain: B1 chain with A618E, E632A
B11: STAT1cc (STAT1 core fragment, A656C and N658C, locked dimer), tag-free, P42224 D672A (protein)
chain: B1 chain with A618E, D672A
B12: STAT1cc (STAT1 core fragment, A656C and N658C, locked dimer), tag-free, P42224 R619A (protein)
chain: B1 chain with A618E, R619A
B13: STAT1cc (STAT1 core fragment, A656C and N658C, locked dimer), tag-free, P42224 S620A (protein)
chain: B1 chain with A618E, S620A
B14: STAT1cc (STAT1 core fragment, A656C and N658C, locked dimer), tag-free, P42224 K665A (protein)
chain: B1 chain with A618E, K665A
B15: STAT1cc (STAT1 core fragment, A656C and N658C, locked dimer), tag-free, P42224 D674A (protein)
chain: B1 chain with A618E, D674A
B16: STAT1cc (STAT1 core fragment, A656C and N658C, locked dimer), tag-free, P42224 N622A (protein)
chain: B1 chain with A618E, N622A
B17: STAT1cc (STAT1 core fragment, A656C and N658C, locked dimer), tag-free, P42224 M654A (protein)
chain: STVMLDKQKELDSKVRNVKDKVMCIEHEIKSLEDLQDEYDFKCKTLQNREHETNGVAKSDQKQEQLLLKKMYLMLDNKRKEVVHKIIELLNVTELTQNALINDELVEWKRRQQSACIGGPPNACLDQLQNWFTIVAESLQQVRQQLKKLEELEQKYTYEHDPITKNKQVLWDRTFSLFQQLIQSSFVVERQPCMPTHPQRPLVLKTGVQFTVKLRLLVKLQELNYNLKVKVLFDKDVNERNTVKGFRKFNILGTHTKVMNMEESTNGSLAAEFRHLQLKEQKNAGTRTNEGPLIVTEELHSLSFETQLCQPGLVIDLETTSLPVVVISNVSQLPSGWASILWYNMLVAEPRNLSFFLTPPCARWAQLSEVLSWQFSSVTKRGLNVDQLNMLGEKLLGPNASPDGLIPWTRFCKENINDKNFPFWLWIESILELIKKHLLPLWNDGCIMGFISKERERALLKDQQPGTFLLRFSESSREGAITFTWVERSQNGGEPDFHAVEPYTKKELSAVTFPDIIRNYKVAACECIPENPLKYLYPNIDKDHAFGKYYSRPKEAPEPMELDGPKGTGYIKTELISVSEVH
B18: STAT1cc (STAT1 core fragment, A656C and N658C, locked dimer), tag-free, P42224 D627A (protein)
chain: B17 chain with D496A, A523M
B19: STAT1cc (STAT1 core fragment, A656C and N658C, locked dimer), tag-free, P42224 E661A (protein)
chain: B17 chain with A523M, E530A

Molecular target: T1, 6XHis-tagged TgIST-R2 (G365-S420)
Assay: nickel affinity copurification, SDS-PAGE, Coomassie blue band quantification
Conditions: chain shown with the change;; parent: est. 1.0; read off a plot

Binder	ratio to parent
B1	0.82
B2	0.75
B3	0.4
B4	0.87
B5	1.1
B6	0.9
B7	0.26
B8	0.79
B9	0.71
B10	0.57
B11	0.93
B12	0.62
B13	0.8
B14	0.7
B15	0.9
B16	0.71
B17	0.04
B18	0.04
B19	0.61
